Test results taken from patent US7012061B1 (New York University, priority 1998, dated 2006).
Several values for one entry are separate records, joined by “and”; a condition that tells them apart may be missing. Equal entries are not always repeated. Where two headings read alike, the source gives them in different places.

Legend:
[1] = tested on: Influenza virus A/WSN/33; type: cell-based
[2] = tested on: VSV; type: cell-based, Vesicular stomatitis virus; conditions: for VSV in supernatant: NB41A3, 8 h pi
[3] = tested on: Sindbis AR339 virus; type: cell-based
[4] = tested on: VSV; type: cell-based, Vesicular stomatitis virus; conditions: RAW, inhibitors, moi = 1, 8 h pi
[5] = tested on: VSV; type: cell-based, Vesicular stomatitis virus; conditions: C6 Glia, moi = 1, 8 h pi
[6] = tested on: HSV-1; type: cell-based, Herpes Simplex virus-1
[7] = tested on: aortic endothelial cells; conditions: Clark et al, 1988; cited from earlier work
[8] = design: species or system mice; conditions: mouse, in vivo
[9] = tested on: IFN-R; design: species or system mice; key: − = no visual staining; + = minimal staining; ++ = moderate staining; +++ = strong staining; conditions: mouse, in vivo
[10] = tested on: VSV mRNA (N gene); type: cell-based, Vesicular stomatitis virus
[11] = tested on: VSV protein; type: cell-based, Vesicular stomatitis virus
[12] = tested on: MHC-II; design: species or system mice; key: − = no visual staining; + = minimal staining; ++ = moderate staining; +++ = strong staining; conditions: mouse, in vivo
[13] = tested on: MHC-I; design: species or system mice; key: − = no visual staining; + = minimal staining; ++ = moderate staining; +++ = strong staining; conditions: mouse, in vivo
[14] = tested on: VSV; design: species or system mice; key: − = no visual staining; + = minimal staining; ++ = moderate staining; +++ = strong staining; conditions: mouse, in vivo
[15] = tested on: blood brain barrier; design: species or system mice; conditions: mouse, in vivo
[16] = tested on: VSV; design: species or system mice; conditions: mouse, in vivo, ip
[17] = tested on: blood brain barrier; conditions: mouse, in vivo
[18] = tested on: VSV; type: in vivo, mice; conditions: mouse, in vivo
[19] = tested on: IL-12; design: species or system mice; key: − = no visual staining; + = minimal staining; ++ = moderate staining; +++ = strong staining; conditions: mouse, in vivo
[20] = tested on: NOS activity in NB41A3 neuroblastoma cells; assay: NO2 release into culture medium (Griess reagent), NB41A3 cells; type: cell-based
Experimental: (§1) FIGS. 2A–2C show the kinetics of the IFN-γ augmented NOS activity in NB41A3 neuroblastoma, C6 rat glioma and RAW cells. Aliquots of supernatant were removed from triplicate wells of 2×10^5 NB41A3 (FIG. 2A), RAW (FIG. 2B) or C6 (FIG. 2C) cells, cultured with medium or with 5 ng IFN-γ for up to 72 hours. The medium was assayed for the presence of NO2 using the Griess reagent, and expressed as nM NO2 ±S.D. present.
(§2) The concentration of NO in culture supernatants was determined by assaying its stable end-product, NO2 (Bredt et al, 1989). Briefly, equal volumes of experimental sample and Griess reagent (1% sulfanilamidide, 0.1% N-1-naphthylethylene-diamine, 5H3PO4) (Sigma) were incubated at room temperature for ten minutes. The reaction produces a pink color, which was quantitated at 540 nm against standards in the same buffer, using an automated plate reader (Bio-Tek, Inc., model EL309). The data is expressed as mM.

[21] = tested on: NOS activity in RAW cells; assay: NO2 release into culture medium (Griess reagent), RAW cells; type: cell-based, murine; conditions: RAW macrophage line, incubation with 5 ng rIFNγ
Experimental: as §1, §2

[22] = tested on: NOS activity in C6 rat glioma cells; assay: NO2 release into culture medium (Griess reagent), C6 cells; type: cell-based; conditions: astrocytes (C6), co-culture with IFN-γ
Experimental: as §1, §2

[23] = 5 μg IFN-γ for 72 hours prior to infection, inhibitors 400 mM, 8 hour infection, moi = 1
[24] = Media (no IFN-γ), inhibitors 400 mM, 8 hour infection, moi = 1

Molecule: CN[C@@H](CCCNC(=N)N)C(=O)O [L-NMA, L-N-Methyl Arginine]
- Influenza infectious virus in supernatant [1, 23]: 3.767 ± .208 Log10 PFU
- Influenza infectious virus in supernatant [1, 24]: 5.810 ± .131 Log10 PFU
- VSV infectious virus in supernatant [2, 23]: 5.761 ± .151 Log10 PFU
- VSV infectious virus in supernatant [2, 24]: 5.948 ± .089 Log10 PFU
- VSV in supernatant ([2]; IFN-γ 5 ng for 72 hours, inhibitors 400 mM, moi = 1): 5.77 ± .21 log10 PFU
- VSV in supernatant ([2]; Medium, inhibitors 400 mM, moi = 1): 5.76 ± .25 log10 PFU
- VSV in supernatant ([2]; NMDA 500 mM for two minutes, inhibitors 400 mM, moi = 1): 5.59 ± .27 log10 PFU
- Effect on IFN-γ-induced inhibition of VSV replication ([2]; NB41A3 cells): abrogation
- Sindbis infectious virus in supernatant [3]: 5.033 ± .238 Log10 PFU and 3.796 ± .084 Log10 PFU
- VSV in supernatant ([4]; IFN-γ 5 ng for 72 hours): 5.71 ± .09 log10 PFU
- VSV in supernatant ([4]; Medium): 5.83 ± .13 log10 PFU
- VSV in supernatant ([5]; IFN-γ 5 ng for 72 hours, inhibitors 400 mM): 5.59 ± .26 log10 PFU
- VSV in supernatant ([5]; Medium, inhibitors 400 mM): 5.85 ± .08 log10 PFU
- VSV in supernatant [5]: 5.38 ± .37 log10 PFU
- Effect on IFN-γ-induced inhibition of HSV-1 replication [6]: abrogation
- HSV-1 infectious virus in supernatant [6]: 5.359 ± .225 Log10 PFU and 5.227 ± .208 Log10 PFU

Molecule: NC1=NN(c2cccc(C(F)(F)F)c2)CC1 [BW 755c]
- TNF-induced injury to aortic endothelial cells [7]: reduced

B1: IL-12: Murine rIL-12 provided by Genetics Institute (protein, UniProt P43431 23-215; P43432 23-335, looked up)
Interleukin-12 subunit alpha: RVIPVSGPARCLSQSRNLLKTTDDMVKTAREKLKHYSCTAEDIDHEDITRDQTSTLKTCLPLELHKNESCLATRETSSTTRGSCLPPQKTSLMMTLCLGSIYEDLKMYQTEFQAINAALQNHNHQQIILDKGMLVAIDELMQSLNHNGETLRQKPPVGEADPYRVKMKLCILLHAFSTRVVTINRVMGYLSSA
Interleukin-12 subunit beta: MWELEKDVYVVEVDWTPDAPGETVNLTCDTPEEDDITWTSDQRHGVIGSGKTLTITVKEFLDAGQYTCHKGGETLSHSHLLLHKKENGIWSTEILKNFKNKTFLKCEAPNYSGRFTCSWLVQRNMDLKFNIKSSSSSPDSRAVTCGMASLSAEKVTLDQRDYEKYSVSCQEDVTCPTAEETLPIELALEARQQNKYENYSTSFFIRDIIKPDPPKNLQMKPLKNSQVEVSWEYPDSWSTPHSYFSLKFFVRIQRKKEKMKETEEGCNQKGAFLVEKTSTEVQCKGGNVCVQAQDRYYNSSCSKWACVPCRVRS
- Time at which weight exceeded initial measurements [8]: ≤ 12 days after infection
- Time at which weight exceeded initial measures [8]: ≤ 12 days after infection
- Weight loss recovery from VSV infection [8]: rapidly recover from the weight loss
- IFN-R relative intensity of staining [9]: ++ and − and +
- Difference in relative amounts of viral mRNA between treated and untreated samples [10]: approximately 20%
- Difference in relative amounts of viral protein between treated and untreated samples [11]: approximately 80%
- MHC-II relative intensity of staining [12]: ++ and + and +++ and −
- MHC-I relative intensity of staining [13]: ++ and + and +++ and −
- VSV relative intensity of staining [14]: +++ and ++ and + and −
- Breakage of the BBB (Evans blue) [15]: did not show breakage of the BBB
- Number of survivors versus control medium [16]: greater
- Survival and weight recovery from VSV infection [16]: not able to rescue
- Survival rate from VSV infection versus control mice [16]: twice the survival rate
- Integrity of the BBB (TEM, intercellular junction gaps) [17]: not enough to disrupt the integrity of the BBB
- Decrease of VSV titer in brain homogenates [18]: about 100 fold
- IL-12 relative intensity of staining [19]: + and − and ++

B2: IFN-γ: Recombinant mouse IFN-γ purchased from Genzyme (protein, UniProt P01580 23-155, looked up)
Interferon gamma: HGTVIESLESLNNYFNSSGIDVEEKSLFLDIWRNWQKDGDMKILQSQIISFYLRLFEVLKDNQAISNNISVIESHLITTFFSNSKAKKDAFMSIAKFEVNNPQVQRQAFNELIRVVHQLLPESSLRKRKRSRC
- NO production by NB41A3 cells ([20]; IFN-γ treatment): significantly increased
- Time to substantial levels of NO2 production ([20]; Neuroblastoma cells, co-culture with IFN-γ): 72 h
- Influenza infectious virus in supernatant [1]: 3.810 ± .130 Log10 PFU
- Replication of influenza virus A/WSN/33 in NB41A3 cells [1]: significantly inhibited
- Time to plateau levels of NO2 production [21]: ≤ 24 h
- VSV infectious virus in supernatant [2]: 3.752 ± .034 Log10 PFU
- VSV replication in NB41A3 cells [2]: significantly inhibited
- Replication of Sindbis virus in NB41A3 cells [3]: significantly inhibited
- Sindbis infectious virus in supernatant [3]: 3.318 ± .373 Log10 PFU
- Time to substantial levels of NO2 production [22]: 72 h
- HSV-1 infectious virus in supernatant [6]: 3.467 ± .408 Log10 PFU
- HSV-1 replication in NB41A3 cells [6]: significantly inhibited
